# Assay results as given in paper PMC12212138, “Crystal structure and mutagenesis of a nucleic acid–binding BRCT domain in human PARP4”.
# T1: PARP4 BRCT K31Q (human, UniProt Q9UKK3 1-100, K31Q)
# T1 sequence: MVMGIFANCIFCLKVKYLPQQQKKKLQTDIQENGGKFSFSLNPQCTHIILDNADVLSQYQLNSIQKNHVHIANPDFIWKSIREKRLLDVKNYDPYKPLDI
# T2: PARP4 BRCT WT (human, UniProt Q9UKK3 1-100)
# T2 sequence: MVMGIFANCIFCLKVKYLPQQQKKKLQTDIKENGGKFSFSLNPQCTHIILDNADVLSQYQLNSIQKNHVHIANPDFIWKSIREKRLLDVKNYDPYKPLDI
# T3: PARP4 BRCT F39A (human, UniProt Q9UKK3 1-100, F39A)
# T3 sequence: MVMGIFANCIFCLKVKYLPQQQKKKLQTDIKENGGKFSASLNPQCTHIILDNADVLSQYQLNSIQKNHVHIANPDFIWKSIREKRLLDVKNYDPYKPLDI
# T4: PARP4 BRCT F39Q (human, UniProt Q9UKK3 1-100, F39Q)
# T4 sequence: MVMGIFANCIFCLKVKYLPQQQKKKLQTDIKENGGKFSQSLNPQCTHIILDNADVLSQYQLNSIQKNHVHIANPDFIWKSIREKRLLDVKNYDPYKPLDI
# T5: PARP4 BRCT K23/24Q (human, UniProt Q9UKK3 1-100, K23Q;K24Q)
# T5 sequence: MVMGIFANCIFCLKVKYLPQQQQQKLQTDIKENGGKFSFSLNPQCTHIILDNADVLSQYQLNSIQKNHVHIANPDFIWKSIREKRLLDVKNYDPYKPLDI
# T6: PARP4 BRCT-WGR-CAT K23/24Q (human, UniProt Q9UKK3 1-573, K23Q;K24Q)
# T6 sequence: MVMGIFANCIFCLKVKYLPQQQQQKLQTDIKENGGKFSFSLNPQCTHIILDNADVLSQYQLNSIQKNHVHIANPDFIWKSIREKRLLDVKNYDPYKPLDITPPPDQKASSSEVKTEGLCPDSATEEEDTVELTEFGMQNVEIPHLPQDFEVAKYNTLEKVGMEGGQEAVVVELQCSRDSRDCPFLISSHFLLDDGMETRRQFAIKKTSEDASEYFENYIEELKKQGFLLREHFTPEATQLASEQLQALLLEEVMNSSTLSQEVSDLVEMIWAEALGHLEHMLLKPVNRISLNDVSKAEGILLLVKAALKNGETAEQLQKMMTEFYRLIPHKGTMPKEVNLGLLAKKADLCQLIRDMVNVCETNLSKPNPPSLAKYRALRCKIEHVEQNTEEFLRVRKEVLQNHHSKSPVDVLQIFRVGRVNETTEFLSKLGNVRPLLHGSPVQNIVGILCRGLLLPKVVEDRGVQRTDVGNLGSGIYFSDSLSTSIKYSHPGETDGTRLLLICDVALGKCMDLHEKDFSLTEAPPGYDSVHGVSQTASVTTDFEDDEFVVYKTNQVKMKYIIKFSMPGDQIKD
# Experiments:
# Conditions in all cases: protein: recombinant; tags: N-terminal His-SUMO removed by TEV; label: 5'-6-FAM; predicted intramolecular fold
# [1] = molecular target: T1, PARP4 BRCT K31Q; experiment: FP; 3 nM probe; FP: 50 mM Tris pH 7.5, 50 mM NaCl, 1 mM MgCl2, 0.05% NP40, 2 mM DTT, 5% glycerol, 25 ug/ml BSA, room temp 30 min; EMSA: 50 mM Tris pH 7.5, 50 mM NaCl, 4% Ficoll PM400, 0.05% NP40, 2 mM DTT, 0-18 uM protein, room temp 30 min, gel at 4 C
# [2] = molecular target: T2, PARP4 BRCT WT; experiment: as above
# [3] = molecular target: T3, PARP4 BRCT F39A; experiment: as above
# [4] = molecular target: T4, PARP4 BRCT F39Q; experiment: as above
# [5] = molecular target: T5, PARP4 BRCT K23/24Q; experiment: as above
# [6] = molecular target: T6, PARP4 BRCT-WGR-CAT K23/24Q; experiment: as above
# [7] = molecular target: T2, PARP4 BRCT WT; experiment: FP; 3 nM probe, probe concentration comparison; FP: 50 mM Tris pH 7.5, 50 mM NaCl, 1 mM MgCl2, 0.05% NP40, 2 mM DTT, 5% glycerol, 25 ug/ml BSA, room temp 30 min; EMSA: 50 mM Tris pH 7.5, 50 mM NaCl, 4% Ficoll PM400, 0.05% NP40, 2 mM DTT, 0-18 uM protein, room temp 30 min, gel at 4 C
# [8] = molecular target: T2, PARP4 BRCT WT; experiment: FP; 30 nM probe, probe concentration comparison; FP: 50 mM Tris pH 7.5, 50 mM NaCl, 1 mM MgCl2, 0.05% NP40, 2 mM DTT, 5% glycerol, 25 ug/ml BSA, room temp 30 min; EMSA: 50 mM Tris pH 7.5, 50 mM NaCl, 4% Ficoll PM400, 0.05% NP40, 2 mM DTT, 0-18 uM protein, room temp 30 min, gel at 4 C
binder,measurement,setting,value
vtRNA1-3 (structured_RNA) RNA: GGCUGGCUUUAGCUCAGCGGUUACUUCGCGUGUCAUCAAACCACCUCUCUGGGUUGUUCGAGACCCGCGGGCGCUCUCCAGCCCUCUU,Kd,[1],61 ± 12 µM
same,Kd,[2],19 ± 4 µM
same,Kd,[3],33 ± 2 µM
same,Kd,[4],35 ± 10 µM
same,binding result,[5],no binding
same,Kd,[6],71 ± 26 µM
same,Kd,[7],19 ± 3 µM
same,Kd,[8],18 ± 3 µM
